Reference: PMC9487866 (Immunity, 2022)

Target: Pfs48/45-6C wild type (Plasmodium falciparum 3D7, UniProt Q8I6T1)
Experiment: BLI
Conditions: both partners purified

Chain of Pfs48/45-6C wild type (Q8I6T1 291-428): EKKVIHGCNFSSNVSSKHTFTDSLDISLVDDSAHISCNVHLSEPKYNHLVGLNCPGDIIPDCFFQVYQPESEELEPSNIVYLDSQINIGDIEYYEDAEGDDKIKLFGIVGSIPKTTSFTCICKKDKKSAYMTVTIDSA

B1: TB31F Fab (Fab, V domains shown)
VH: EVQLVQSGGGLVQPGGSLRLSCAASGFTFNNYWMSWVRQAPGKGLEWVSSISNIGGTIYYPDSVKGRFTISRDNSKNTLYLQMNSLRAEDTAVYYCTRDLRMSDYFDYWGQGTMVTVSS
VL: NFMLTQPHSVSESPGKTVTISCTRSTGNIGSNYVSWYQQRPGSSPTTVIYRDDQRPSGVPDRFSGSIDRSSNSASLTISGLKTEDEADYYCHSYSTGMYIFGGGTKLTVL
  Kd: 3.1 nM
